Measured values taken from US20100297662A1.
pIC50, pKd: −log10 of the molar value.

How the values were obtained:
[1] = target: ASPD (amylospheroid; Aβ species not stated); assay: competitive ELISA: antibody pre-reacted with ASPD in solution, then ASPD solid-phase plate
[2] = target: commercially available amyloid precursor protein sAPPα (Sigma) (UniProt P05067); assay: competitive ELISA: antibody pre-reacted with sAPPα in solution, then ASPD solid-phase plate
[3] = target: monomeric amyloid β42-protein (Aβ1-42); assay: SPR (BIAcore 3000), antigen on CM5 chip, antibody in solution
monomeric amyloid β42-protein (Aβ1-42), sequence (peptide, as listed by the source): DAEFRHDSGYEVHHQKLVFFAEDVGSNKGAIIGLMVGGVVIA

[4] = target: Aβ fibril prepared from amyloid β40 (Homo sapiens (Human)) (UniProt P05067); assay: as above
[5] = target: monomeric amyloid β40-protein (Aβ1-40); assay: as above
monomeric amyloid β40-protein (Aβ1-40), sequence (peptide, as listed by the source): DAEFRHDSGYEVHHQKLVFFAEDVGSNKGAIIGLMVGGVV

[6] = target: amylospheroid 42 (Homo sapiens (Human)) (UniProt P05067); assay: as above
[7] = target: amylospheroid 42 (Homo sapiens (Human)) (UniProt P05067); assay: SPR, ratio of Kd values (40Aβ against 42ASPD)
[8] = target: Aβ fibril (42 fibril) prepared from 42Aβ (Homo sapiens (Human)) (UniProt P05067); assay: SPR (BIAcore), antigen on CM5 chip, antibody in solution
[9] = target: monomeric amyloid β40-protein (Aβ1-40); assay: as above
[10] = target: amylospheroid 42 (Homo sapiens (Human)) (UniProt P05067); assay: as above
[11] = target: amylospheroid 42 (Homo sapiens (Human)) (UniProt P05067); assay: SPR, ratio of Kd values (42 fibril against 42ASPD)

## commercially available anti-amyloid β antibody 6E10 (Senetek)
[1]
  pIC50: 8.43
[2]
  pIC50: 7.79
[3]
  pKd: 7.76
[4]
  pKd: 8.88
[5]
  pKd: 7.43
[6]
  pKd: 7.74

## anti-Aβ antibody 3D6 (US 20030165496 A1), produced as a mouse IgG2b/κ molecule
[7]
  fold higher affinity with ASPD than with amyloid β-monomer: 34 times
[8]
  pKd: 9.64
[9]
  pKd: 8.41
[10]
  pKd: 9.94
[11]
  fold higher affinity with ASPD than with amyloid fibril: 2 times
